According to PMC3258846 (Molecular Cell, 2011):

Key:
GST-ASCC3-B = GST-ASCC3-B (human, UniProt Q8N3C0 401-1300); assay: pull-down
GST-ASCC3-C = GST-ASCC3-C (human, UniProt Q8N3C0 1301-2202); assay: pull-down
Chain of GST-ASCC3-C (Q8N3C0 1301-2202): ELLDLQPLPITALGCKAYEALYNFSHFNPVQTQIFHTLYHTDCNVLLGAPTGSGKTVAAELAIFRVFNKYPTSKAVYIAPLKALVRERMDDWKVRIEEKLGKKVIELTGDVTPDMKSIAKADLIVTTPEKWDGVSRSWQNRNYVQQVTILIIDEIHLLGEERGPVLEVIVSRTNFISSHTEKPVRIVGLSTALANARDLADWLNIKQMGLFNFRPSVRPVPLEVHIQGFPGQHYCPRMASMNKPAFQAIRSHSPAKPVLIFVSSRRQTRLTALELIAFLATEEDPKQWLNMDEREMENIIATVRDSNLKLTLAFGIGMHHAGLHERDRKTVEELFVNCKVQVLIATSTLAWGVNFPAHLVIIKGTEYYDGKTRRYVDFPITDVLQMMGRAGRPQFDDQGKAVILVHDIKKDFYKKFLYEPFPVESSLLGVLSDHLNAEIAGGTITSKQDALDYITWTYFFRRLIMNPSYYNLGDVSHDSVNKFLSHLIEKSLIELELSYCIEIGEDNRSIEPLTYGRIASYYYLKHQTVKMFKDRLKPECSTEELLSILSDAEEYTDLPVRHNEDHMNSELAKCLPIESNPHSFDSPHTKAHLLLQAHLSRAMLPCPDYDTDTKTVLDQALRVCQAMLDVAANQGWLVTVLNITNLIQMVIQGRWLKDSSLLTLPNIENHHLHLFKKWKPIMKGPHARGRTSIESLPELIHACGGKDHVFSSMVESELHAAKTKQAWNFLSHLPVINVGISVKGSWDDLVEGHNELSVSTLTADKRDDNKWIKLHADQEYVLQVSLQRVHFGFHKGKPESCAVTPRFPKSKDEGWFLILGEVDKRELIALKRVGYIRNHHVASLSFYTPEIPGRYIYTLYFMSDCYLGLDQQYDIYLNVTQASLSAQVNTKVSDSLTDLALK

Chain of GST-ASCC3-B (Q8N3C0 401-1300): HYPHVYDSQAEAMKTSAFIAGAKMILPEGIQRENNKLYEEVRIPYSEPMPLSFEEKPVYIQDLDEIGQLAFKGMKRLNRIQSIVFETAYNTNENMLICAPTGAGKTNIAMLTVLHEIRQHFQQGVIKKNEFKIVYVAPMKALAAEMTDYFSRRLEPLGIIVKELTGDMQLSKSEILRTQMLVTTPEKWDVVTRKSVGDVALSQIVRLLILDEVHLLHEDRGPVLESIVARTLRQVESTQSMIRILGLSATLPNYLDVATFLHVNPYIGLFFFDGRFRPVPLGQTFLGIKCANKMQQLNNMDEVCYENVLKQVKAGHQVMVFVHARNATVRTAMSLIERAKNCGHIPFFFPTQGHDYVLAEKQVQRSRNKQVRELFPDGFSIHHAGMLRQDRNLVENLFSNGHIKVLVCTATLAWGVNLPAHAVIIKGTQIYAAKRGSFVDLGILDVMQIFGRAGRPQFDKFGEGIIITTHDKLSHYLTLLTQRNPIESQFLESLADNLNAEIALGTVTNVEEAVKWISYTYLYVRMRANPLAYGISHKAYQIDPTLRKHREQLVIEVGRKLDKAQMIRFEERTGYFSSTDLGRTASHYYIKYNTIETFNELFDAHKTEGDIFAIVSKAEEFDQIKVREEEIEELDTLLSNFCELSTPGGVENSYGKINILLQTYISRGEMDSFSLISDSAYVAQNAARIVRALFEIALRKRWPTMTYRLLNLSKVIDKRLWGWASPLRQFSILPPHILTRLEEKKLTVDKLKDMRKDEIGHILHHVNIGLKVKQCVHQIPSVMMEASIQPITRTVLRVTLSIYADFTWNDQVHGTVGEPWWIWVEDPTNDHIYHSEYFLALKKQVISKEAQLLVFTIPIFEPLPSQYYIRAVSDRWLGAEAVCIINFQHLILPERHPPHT

B1: His6-ALKBH3 (enzyme, human, UniProt Q96Q83 1-286, looked up)
chain: MEEKRRRARVQGAWAAPVKSQAIAQPATTAKSHLHQKPGQTWKNKEHHLSDREFVFKEPQQVVRRAPEPRVIDREGVYEISLSPTGVSRVCLYPGFVDVKEADWILEQLCQDVPWKQRTGIREDITYQQPRLTAWYGELPYTYSRITMEPNPHWHPVLRTLKNRIEENTGHTFNSLLCNLYRNEKDSVDWHSDDEPSLGRCPIIASLSFGATRTFEMRKKPPPEENGDYTYVERVKIPLDHGTLLIMEGATQADWQHRVPKEYHSREPRVNLTFRTVYPDPRGAPW
GST-ASCC3-B
  binding result: binds
GST-ASCC3-C
  binding result: binds
